Measurements as given in article PMC12700550, “DLL4^+ neutrophils promote Notch1-mediated endothelial PANoptosis to exacerbate acute lung injury in sepsis” (The Journal of Clinical Investigation, 2025).
Several values for one entry are separate records, joined by “and”; a condition that tells them apart may be missing. Equal values may be shown once.

B1: eCIRP: extracellular cold-inducible RNA-binding protein; recombinant murine, produced in our laboratory (protein, UniProt P60824 1-172, looked up)
Cold-inducible RNA-binding …: MASDEGKLFVGGLSFDTNEQALEQVFSKYGQISEVVVVKDRETQRSRGFGFVTFENIDDAKDAMMAMNGKSVDGRQIRVDQAGKSSDNRSRGYRGGSAGGRGFFRGGRSRGRGFSRGGGDRGYGGGRFESRSGGYGGSRDYYASRSQGGSYGYRSSGGSYRDSYDSYATHNE

Assays:
c-GSDMD = assay: c/t GSDMD (pyroptosis) in PVECs cocultured with neutrophils, Western blot; format: cell-based, mouse; conditions: for c/t GSDMD (Figure 4G): 10 μM peptide, 16 h, individual replicates
Method: Wild-type PVECs (5 × 10^5) were cocultured with sorted DLL4^+ neutrophils (5 × 10^5) or DLL4^– neutrophils (5 × 10^5) and then treated with different dosages of peptides or 10 μM DAPT (Thermo Fisher Scientific), 10 μM NDI (GenScript), or 10 μM NDI scramble (GenScript). Notch1-knockdown PVECs (5 × 10^5) were cocultured with sorted DLL4^+ neutrophils (5 × 10^5). After 16 hours, neutrophils were washed away by PBS, and PVECs were collected for further experiments. Cell viability was evaluated by propidium iodide staining using the FITC Annexin V Apoptosis Detection Kit I (catalog 556547, BD Pharmingen). Cell death was quantified as the percentage of propidium iodide–positive cells by flow cytometry.
PVECs and lung tissue were collected in previous steps. Whole-cell proteins were extracted, and the protein concentration was measured using an ABC protein assay kit (catalog 5000002, Bio-Rad). Proteins were separated using NuPAGE 4%–12% Bis-Tris gels (Invitrogen), transferred to PVDF membranes, and immunoblotted with the antibodies indicated in the figure legends according to the manufacturer’s recommendations. The ZBP1 antibody (catalog PA5-20455; 1:1,000) used in this study was obtained from Thermo Fisher Scientific, and the c-GSDMD (catalog 10137S; 1:250), GSDMD (catalog 39754S; 1:1000), c-caspase-3 (catalog 9661L; 1:250), caspase-3 (catalog 9662S; 1:1,000), p-MLKL (catalog 37333S; 1:250), MLKL (catalog 37705S; 1:1,000), N1ICD (c-Notch1) (catalog 4147S; 1:250), and Notch1 (catalog 3608S; 1:1,000) antibodies were obtained from Cell Signaling Technology. GAPDH (catalog 60004-1-Ig; 1:10,000) and β-actin (catalog A5441, Sigma-Aldrich; 1:5,000) were obtained from ProteinTech. After the blots were incubated with primary antibodies, the membranes were washed 3 times, and the blots were subsequently incubated with the corresponding fluorescent secondary antibody (LI-COR). Bands were detected using an Odyssey FC Dual-Mode Imaging system 2800 (LI-COR).

C57BL/6 mice, CLP sepsis [1] = conditions: mouse, in vivo, 10 mg/kg
Method: Sepsis was induced in mice by cecal ligation and puncture (CLP) as described previously ([45], [46]). Mice were anesthetized with isoflurane to a surgical plane and placed in a supine position. CLP was performed through a midline laparotomy. The abdomen was shaved and disinfected. Through a 2 cm midline incision, the cecum was exposed and then ligated with a 4-0 silk suture 1 cm proximal from the distal cecal extremity. For 20-hour CLP experiments, the cecum was punctured twice with a 22-gauge needle. A small amount of cecal content was extruded through both holes, and the ligated cecum was returned to the peritoneal cavity. The wound was closed in layers. For 10-day sepsis survival studies, the cecum was punctured once with a 22-gauge needle. A small amount of cecal content was extruded. Mice were allocated to the vehicle and adoptive transfer of DLL4^+ neutrophils or DLL4^– neutrophils groups. Adoptive transfer mice received a retro-orbital injection of 1 × 10^6 cells per mouse DLL4^+ neutrophils or DLL4^– neutrophils in […] phosphate-buffered saline (PBS) immediately after abdominal closure in both the 20-hour experiments and the survival study. Vehicle groups received an equivalent volume of PBS, while treatment groups received NDI 10 mg/kg in […] PBS via retro-orbital injection after CLP. […]

C57BL/6 mice, CLP sepsis [2] = assay: Serum lactate dehydrogenase (LDH), CLP mice; format: in vivo, mouse; parameters: serum LDH (Figure 6C): unit not given here; conditions: 20 h; for serum LDH (Figure 6C): 10 mg/kg NDI, individual mice
Method: Sepsis was induced in mice by cecal ligation and puncture (CLP) as described previously ([45], [46]). Mice were anesthetized with isoflurane to a surgical plane and placed in a supine position. CLP was performed through a midline laparotomy. The abdomen was shaved and disinfected. Through a 2 cm midline incision, the cecum was exposed and then ligated with a 4-0 silk suture 1 cm proximal from the distal cecal extremity. […] A small amount of cecal content was extruded through both holes, and the ligated cecum was returned to the peritoneal cavity. The wound was closed in layers. […] A small amount of cecal content was extruded. […] Vehicle groups received an equivalent volume of PBS, while treatment groups received NDI 10 mg/kg in […] PBS via retro-orbital injection after CLP. This dose was chosen primarily on the basis of our laboratory’s prior experience, we have consistently used this dose in mouse CLP models with reproducible efficacy and without observable toxicity ([39], [44]). Sham-operated animals underwent a laparotomy without CLP. After closure, the mice received a subcutaneous injection of 0.5 mL of normal saline to overcome surgery-induced dehydration. […] All mice were subcutaneously injected with a single dose of 0.1 mg/kg buprenorphine after CLP. Serum levels of alanine aminotransferase, aspartate aminotransferase, and lactate dehydrogenase were determined using specific colorimetric enzymatic assays (Pointe Scientific Inc.) according to the manufacturer’s instructions.

DLL1 = DLL1 mRNA in eCIRP-treated BMDNs, qPCR; format: cell-based, mouse; conditions: for DLL1 mRNA: DLL1-CIRP
Method: mRNA was extracted from lung tissues with TRIzol reagent (Invitrogen, Thermo Fisher Scientific). An equal amount ([…]) of mRNA was reverse-transcribed into cDNA using the reverse transcriptase enzyme (Invitrogen, Thermo Fisher Scientific). qPCR was performed from the diluted cDNA templates with forward and reverse primers (Supplemental Table 4) and SYBR Green PCR Master Mix (Applied Biosystems, Thermo Fisher Scientific) using an Applied Biosystems 7300 real-time PCR machine. Mouse β-actin served as an internal control gene for normalization. Relative expression of mRNA was represented as fold change in comparison with the sham group.
BMDNs (1 × 10^6) were treated with eCIRP (1 μg/mL) for 12 hours, and DLL1, DLL3, and DLL4 were analyzed by qPCR.

| Molecule | effect on c-GSDMD (c-GSDMD; 10 μM NDI, DLL4^+ neutrophil coculture) | c/t GSDMD (Figure 4G) (c-GSDMD; DLL4^+ neutrophil coculture) | c/t GSDMD (Figure 4G) (c-GSDMD; DLL4^– neutrophil coculture) | adverse effects (C57BL/6 mice, CLP sepsis [1]) | effect on serum LDH (C57BL/6 mice, CLP sepsis [2]; DLL4^+ neutrophil-injected CLP mice, 10 mg/kg) | serum LDH (Figure 6C) (C57BL/6 mice, CLP sepsis [2]; DLL4^+ neutrophils + CLP) | serum LDH (Figure 6C) (C57BL/6 mice, CLP sepsis [2]; DLL4^– neutrophils + CLP) | effect on DLL1 expression (DLL1; BMDNs, eCIRP 1 μg/mL, 12 h) | DLL1 mRNA (DLL1; replicate 1) | DLL1 mRNA (DLL1; replicate 2) | DLL1 mRNA (DLL1; replicate 3) | DLL1 mRNA (DLL1; replicate 4) | DLL1 mRNA (DLL1; replicate 5) | DLL1 mRNA (DLL1; replicate 6) | DLL1 mRNA (DLL1; replicate 7) | DLL1 mRNA (DLL1; replicate 8) |
| --- | --- | --- | --- | --- | --- | --- | --- | --- | --- | --- | --- | --- | --- | --- | --- | --- |
| ECAGSPCHNGGTCEDGI [NDI] | significantly reduced these markers of PANoptosis | 1.2879 and 0.9868 and 1.126 and 1.624 and 1.978 and 2.103 and 0.1622 and 0.328 and 1.184 | 0.692 and 1.126 and 1.001 and 1.013 and 0.9854 and 1.021 | lack of observed adverse effects in treated animals | significantly reduced the serum levels of hepatic and cell injury markers and proinflammatory cytokines | 147.333 and 112.563 and 68.952 and 111.973 and 140.948 and 125.756 and 107.496 and 149.824 and 137.164 and 20.8187 and 17.4427 and 47.264 and 66.5947 and 58.344 and 58.9333 and 52.4507 and 35.9493 | 149.691 and 73.0773 and 124.349 and 178.568 and 24.752 and 44.7893 and 34.7707 and 33.0027 and 50.0933 |  |  |  |  |  |  |  |  |  |
| B1 |  |  |  |  |  |  |  | no significant induction of DLL1 or DLL3 | 0.838 | 0.9002 | 1.276 | 1.001 | 0.5711 | 0.6454 | 0.3425 | 0.4208 |
